Tests used:
Experiment in all cases: FRET or BRET
[1] = target: CaGpi2-His6 (C. albicans Gpi2, GPI-GnT subunit, tagged with His6 at the C-terminus) (C. albicans) (UniProt Q5A6L6)
[2] = target: CaGpi3 (C. albicans Gpi3, GPI-GnT subunit) (C. albicans (endogenous in BWP17-derived cells))
[3] = target: CaGpi8 (C. albicans Gpi8, subunit of the GPI-transamidase) (C. albicans (endogenous in the cells))

| Molecule | spatial distance r (AP-FRET) [1] [nm] | spatial distance r (AP-FRET) [2] [nm] | spatial distance r (AP-FRET) [3] [nm] |
| --- | --- | --- | --- |
| CaRas1 (C. albicans Ras1) (natural protein) | 5.3 | – | – |
| CaArv1-V5 (C. albicans Arv1 tagged with V5 at its C-terminus) (natural protein) MICIECGYSNIDCLYSKYKSDYIKLSVCPECNKIADKYIEYDSVILFLDILLLKRQAYKHLAYNLTEMEMEIGSSTNFHINDNTNFKFFHTYRKLMKLIFMILSFEVYLTWANEEKLLIHSQLINLIFNQSVVYQYLFFIIKSSLENLILNLSLQLILRLGYKWGQGPQKINGNIRDKELFGYKTSVLLVTTMVSGSIRLFPILMFIWPYDNISITKPLINLIAFINIVEALRVVTSLGYVELILSLAFSIVIRNIVSKSLLVLIVRLFLDFNFTEVYYNEMYQLYSQIQTYIRWI | – | 6.3 | > 10 |
